Experimental data from publication PMC5595413.
Several values for one entry are separate records, joined by “and”; a condition that tells them apart may be missing. Identical values can stand only once.

Key:
[1] = target: C41S SqrR (R. capsulatus); assay: SEC + cross-linking
[2] = target: C107S SqrR (R. capsulatus); assay: SEC + cross-linking

| stoichiometry N [1] | stoichiometry N [2] | Substance |
| --- | --- | --- |
| 2 |  | C41S SqrR (natural protein) |
|  | 2 and 4 | C107S SqrR (natural protein) |
